Key:
[1] = target: T1, GST-IRP2 (Homo sapiens, UniProt P48200 1-963); assay: EMSA
T1 sequence: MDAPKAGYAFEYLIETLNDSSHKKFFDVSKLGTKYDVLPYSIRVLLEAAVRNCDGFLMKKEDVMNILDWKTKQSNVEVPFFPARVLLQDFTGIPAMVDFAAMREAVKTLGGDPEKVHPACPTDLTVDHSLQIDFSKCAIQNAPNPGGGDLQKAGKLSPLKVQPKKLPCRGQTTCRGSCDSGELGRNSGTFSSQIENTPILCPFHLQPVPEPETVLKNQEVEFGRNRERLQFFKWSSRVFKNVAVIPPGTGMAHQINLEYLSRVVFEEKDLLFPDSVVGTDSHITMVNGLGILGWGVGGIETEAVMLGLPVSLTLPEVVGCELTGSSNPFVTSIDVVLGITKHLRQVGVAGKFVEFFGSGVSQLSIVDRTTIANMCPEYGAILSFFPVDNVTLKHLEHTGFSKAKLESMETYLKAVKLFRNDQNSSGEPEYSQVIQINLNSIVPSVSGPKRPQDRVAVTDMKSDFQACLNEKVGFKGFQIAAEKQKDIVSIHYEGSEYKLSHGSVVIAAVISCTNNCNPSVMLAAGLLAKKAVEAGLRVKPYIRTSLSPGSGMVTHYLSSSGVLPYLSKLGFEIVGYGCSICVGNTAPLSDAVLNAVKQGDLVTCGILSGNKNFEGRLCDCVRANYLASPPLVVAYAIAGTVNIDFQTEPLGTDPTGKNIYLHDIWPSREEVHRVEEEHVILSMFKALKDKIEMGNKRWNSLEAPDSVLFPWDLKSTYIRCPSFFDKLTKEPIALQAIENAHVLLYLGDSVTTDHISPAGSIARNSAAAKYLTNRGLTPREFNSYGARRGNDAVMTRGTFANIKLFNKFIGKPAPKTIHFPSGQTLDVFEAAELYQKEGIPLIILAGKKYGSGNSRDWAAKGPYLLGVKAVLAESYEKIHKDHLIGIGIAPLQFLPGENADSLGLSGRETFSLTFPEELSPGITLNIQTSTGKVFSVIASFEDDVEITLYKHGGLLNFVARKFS

[2] = target: T2, GST-IRP1 (Homo sapiens, UniProt P21399 1-889); assay: EMSA
T2 sequence: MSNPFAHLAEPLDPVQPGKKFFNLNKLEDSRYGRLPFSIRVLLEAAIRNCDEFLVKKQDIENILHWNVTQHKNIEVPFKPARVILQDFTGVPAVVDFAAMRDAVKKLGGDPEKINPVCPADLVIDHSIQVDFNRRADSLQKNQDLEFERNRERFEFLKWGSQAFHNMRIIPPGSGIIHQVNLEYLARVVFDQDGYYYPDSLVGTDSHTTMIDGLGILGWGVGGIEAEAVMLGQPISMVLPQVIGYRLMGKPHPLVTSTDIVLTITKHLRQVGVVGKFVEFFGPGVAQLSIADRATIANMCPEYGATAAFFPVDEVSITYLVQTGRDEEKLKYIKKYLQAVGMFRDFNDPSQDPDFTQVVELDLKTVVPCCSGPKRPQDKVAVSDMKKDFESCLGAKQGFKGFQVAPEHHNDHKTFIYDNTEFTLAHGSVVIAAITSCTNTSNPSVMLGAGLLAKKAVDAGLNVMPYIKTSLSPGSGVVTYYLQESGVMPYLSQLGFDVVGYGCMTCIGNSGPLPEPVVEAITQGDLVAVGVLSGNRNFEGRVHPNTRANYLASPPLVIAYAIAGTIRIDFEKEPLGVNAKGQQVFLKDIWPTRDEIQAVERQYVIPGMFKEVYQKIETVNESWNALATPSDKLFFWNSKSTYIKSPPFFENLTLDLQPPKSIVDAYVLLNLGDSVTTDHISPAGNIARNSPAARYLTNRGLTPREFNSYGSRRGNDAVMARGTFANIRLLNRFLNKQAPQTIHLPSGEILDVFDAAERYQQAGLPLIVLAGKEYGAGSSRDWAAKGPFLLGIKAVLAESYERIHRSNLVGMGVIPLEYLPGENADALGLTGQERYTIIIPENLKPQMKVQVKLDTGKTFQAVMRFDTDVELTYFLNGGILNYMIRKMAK

Q: Does CCUGGUUUUUAAGGAGUGUCGCCAGAGUGCCGCGAAUGAAAAA (ssRNA) [non-IRE control RNA] bind [1]?
A: Result: no binding

Q: Does CCUGGUUUUUAAGGAGUGUCGCCAGAGUGCCGCGAAUGAAAAA (ssRNA) [non-IRE control RNA] bind [2]?
A: Result: no binding

Q: What does the source list for GAGGGGGCUUGCACAGAGUUGGAGCCAGAGG (structured_RNA) [CD63 5' UTR IRE]?
A: binding result [1]: binds; binding result [2]: binds

From article PMC8667049
